Test results: the supplement of paper PMC12042874
± gives the uncertainty stated by the source.

test: amyloid nucleation score (Sup35N fusion, yeast selection) (log enrichment); library NNK1; higher = more nucleation; inactive = no reads after selection
Summary of the method: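 For the nucleation score, DiMSum gave the log enrichment of output over input reads, centred on the mode score of non-aggregating sequences. Psi-negative yeast expressing Sup35N fused to peptides of 20 random codons were induced with 100 μM copper sulfate for 24 hours and grown 7 days at 30°C on medium lacking adenine and uracil. Input and output plasmid inserts were Illumina-sequenced, and sequences with under 100 input reads were excluded.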

Q: Which amyloid nucleation score does the source give for ILYGRIR here?
A: The amyloid nucleation score was “inactive”.

Q: For QCAYGWFRIIVITRFFCEDS, which amyloid nucleation score is on record?
A: The amyloid nucleation score was -0.701 ± 0.37.

Q: With VTMVGRSLKLLMTYETFNTW as the substance, how does the amyloid nucleation score read?
A: Its amyloid nucleation score is -0.21 ± 0.24.

Q: Which amyloid nucleation score does the source give for LFCDPAFGKHLCFRNAFCWF here?
A: The amyloid nucleation score was 0.255 ± 0.23.

Q: Which amyloid nucleation score does the source give for SSSADLAATARLFAGWEVLY here?
A: Its amyloid nucleation score is 0.045 ± 0.74.

Q: Which amyloid nucleation score does the source give for YFSFLDNGGMPYVVVDYGLC here?
A: The amyloid nucleation score was 0.042 ± 0.85.

Q: With RLRPTTAASSLCSVLVPR as the substance, how does the amyloid nucleation score read?
A: The amyloid nucleation score was -0.097 ± 1.1.

Q: With GSMDCLYVSYLGNYENRYRG as the substance, how does the amyloid nucleation score read?
A: Its amyloid nucleation score is 0.232 ± 0.79.

Q: With HRYRGRNLLILCRNDDWCDF as the substance, how does the amyloid nucleation score read?
A: The amyloid nucleation score was 1.26 ± 0.47.

Q: With RIMGFRTFEHWIININYLLL as the substance, how does the amyloid nucleation score read?
A: Its amyloid nucleation score is -0.094 ± 0.41.

Q: With RIGTTWMMCIPWVLNCNV as the substance, how does the amyloid nucleation score read?
A: Its amyloid nucleation score is 6.945 ± 0.051.

Q: Which amyloid nucleation score does the source give for SSVYVSIQLGGTLPRWGGVR here?
A: The amyloid nucleation score was 1.19 ± 0.3.

Q: With YCTLFGSWPLIVVVGG as the substance, how does the amyloid nucleation score read?
A: Its amyloid nucleation score is -0.772 ± 0.77.

Q: With RSWKNKFYPVCFSKSGSRF as the substance, how does the amyloid nucleation score read?
A: Its amyloid nucleation score is -0.215 ± 0.41.

Q: For GVFMKYQ, which amyloid nucleation score is on record?
A: The amyloid nucleation score was 0.18 ± 1.2.

Q: With LMNVVLISHKSFVYSR as the substance, how does the amyloid nucleation score read?
A: Its amyloid nucleation score is -1.16 ± 2.7.

Q: For QYHYNGGLPRQFK, which amyloid nucleation score is on record?
A: The amyloid nucleation score was -0.534 ± 0.54.

Q: Which amyloid nucleation score does the source give for VEQLFGLAMRDLA here?
A: Its amyloid nucleation score is -0.448 ± 0.8.

Q: With TWAHMQYDVWPDPTAEKDQV as the substance, how does the amyloid nucleation score read?
A: Its amyloid nucleation score is 0.158 ± 0.34.

Q: Which amyloid nucleation score does the source give for WADTIFCTSACNNVSGIRWG here?
A: Its amyloid nucleation score is -0.681 ± 0.58.

Q: Which amyloid nucleation score does the source give for ANLDQCYIMEWGSTESSKL here?
A: The amyloid nucleation score was 0.302 ± 1.

Q: With AYHNDWR as the substance, how does the amyloid nucleation score read?
A: Its amyloid nucleation score is -0.85 ± 0.76.

Q: With NLFTTSSCNLIFSTICFD as the substance, how does the amyloid nucleation score read?
A: The amyloid nucleation score was 7.281 ± 0.067.

Q: For GSPLVVSKTVVFMSGNF, which amyloid nucleation score is on record?
A: The amyloid nucleation score was 7.149 ± 0.052.

Q: Which amyloid nucleation score does the source give for SQSTLCSHTP here?
A: The amyloid nucleation score was 1.13 ± 0.74.

Q: For LLVLSLINFFFKKRAFCPIT, which amyloid nucleation score is on record?
A: The amyloid nucleation score was 2.11 ± 0.6.

Q: Which amyloid nucleation score does the source give for VILSYRLSEWGSSGDGDGRR here?
A: Its amyloid nucleation score is -0.562 ± 0.8.

Q: With VHNHISP as the substance, how does the amyloid nucleation score read?
A: The amyloid nucleation score was -0.836 ± 0.37.

Q: For DLFYDGCSRFLVMSKGTALV, which amyloid nucleation score is on record?
A: The amyloid nucleation score was -0.412 ± 1.2.

Q: For VVEARWNKAMHTNFLNVRES, which amyloid nucleation score is on record?
A: The amyloid nucleation score was 0.601 ± 0.65.

Q: For GLDFCIVRACTKRYSWNQLG, which amyloid nucleation score is on record?
A: Its amyloid nucleation score is 1.69 ± 0.56.

Q: For SFTGVDHSQLNDFSATNNAS, which amyloid nucleation score is on record?
A: Its amyloid nucleation score is 0.653 ± 0.55.

Q: For AIRFDLVTFAAIEGIIYKGR, which amyloid nucleation score is on record?
A: Its amyloid nucleation score is 0.136 ± 1.

Q: For TWSLLNIVYMSN, which amyloid nucleation score is on record?
A: The amyloid nucleation score was 0.867 ± 0.39.

Q: For CPVFQHDDKDWLGVFKWLRN, which amyloid nucleation score is on record?
A: The amyloid nucleation score was -1.32 ± 2.4.

Q: For TCRNFRHG, which amyloid nucleation score is on record?
A: The amyloid nucleation score was -0.542 ± 0.57.

Q: With KESECITS as the substance, how does the amyloid nucleation score read?
A: The amyloid nucleation score was -0.849 ± 0.75.

Q: For GLTINNSI, which amyloid nucleation score is on record?
A: Its amyloid nucleation score is 0.588 ± 0.38.

Q: With RILAIIVGVSAVSKKSNNEL as the substance, how does the amyloid nucleation score read?
A: The amyloid nucleation score was 0.913 ± 0.48.

Q: Which amyloid nucleation score does the source give for SWRNVLKSGASRNKVDRSSL here?
A: Its amyloid nucleation score is -0.22 ± 1.1.

Q: With SLHSDVRHRRVVYVVREIAY as the substance, how does the amyloid nucleation score read?
A: The amyloid nucleation score was -0.096 ± 1.1.

Q: For GSVAFFNLNMLRVLYIIYER, which amyloid nucleation score is on record?
A: The amyloid nucleation score was 0.369 ± 0.36.

Q: With IYNTYPTRRLRLQRGYYSME as the substance, how does the amyloid nucleation score read?
A: The amyloid nucleation score was -0.607 ± 1.5.

Q: Which amyloid nucleation score does the source give for VRFIFSRSIGLQ here?
A: The amyloid nucleation score was -0.361 ± 0.42.

Q: For CVVLMMGVPAKAGLLLLHWS, which amyloid nucleation score is on record?
A: The amyloid nucleation score was 0.297 ± 0.35.

Q: With GLKIQPLCS as the substance, how does the amyloid nucleation score read?
A: Its amyloid nucleation score is 0.373 ± 0.49.

Q: For MPYLNGHYRH, which amyloid nucleation score is on record?
A: The amyloid nucleation score was “inactive”.

Q: Which amyloid nucleation score does the source give for IRVINYFVWSWTLTIIADFI here?
A: Its amyloid nucleation score is -1.25 ± 2.4.

Q: Which amyloid nucleation score does the source give for MTYDGCNSCKHLKSGKLRWC here?
A: Its amyloid nucleation score is 0.117 ± 0.29.

Q: For GFYGNIYFDNLRLNVMTRRG, which amyloid nucleation score is on record?
A: Its amyloid nucleation score is 9.21 ± 0.061.

Q: Which amyloid nucleation score does the source give for FQWNAANYANSYPCKLLCSA here?
A: The amyloid nucleation score was 1.78 ± 0.21.

Q: With IWYFLCICSLYRLEYHLLDC as the substance, how does the amyloid nucleation score read?
A: Its amyloid nucleation score is -0.405 ± 0.25.

Q: For ICNFVSLFNWK, which amyloid nucleation score is on record?
A: Its amyloid nucleation score is -0.025 ± 0.79.

Q: For FQCVILVPG, which amyloid nucleation score is on record?
A: Its amyloid nucleation score is 1.03 ± 0.74.

Q: With FCVYKAVCIHYPSGFPLTIG as the substance, how does the amyloid nucleation score read?
A: Its amyloid nucleation score is -0.238 ± 0.31.

Q: For FNYYYLVEWGDGASIRIASI, which amyloid nucleation score is on record?
A: Its amyloid nucleation score is -0.473 ± 1.4.

Q: With HIFWYCHMFPVVMASIIINS as the substance, how does the amyloid nucleation score read?
A: The amyloid nucleation score was 0.637 ± 0.59.

Q: With LAVDMQRF as the substance, how does the amyloid nucleation score read?
A: The amyloid nucleation score was 0.224 ± 1.4.

Q: For IAILIYASAFKSSSGCGVKS, which amyloid nucleation score is on record?
A: The amyloid nucleation score was 0.177 ± 0.64.

Q: With SQMAVYRPHLLVSSFMFTRS as the substance, how does the amyloid nucleation score read?
A: Its amyloid nucleation score is 0.274 ± 0.57.

Q: Which amyloid nucleation score does the source give for MFGGGWDAKWPPIPCLKKVD here?
A: Its amyloid nucleation score is 0.308 ± 0.43.

Q: With PTHDILFVTDSLTAKANDMV as the substance, how does the amyloid nucleation score read?
A: Its amyloid nucleation score is -0.189 ± 0.32.

Q: With WSRHELWWVPCCDRMLVLGH as the substance, how does the amyloid nucleation score read?
A: Its amyloid nucleation score is 0.746 ± 0.9.

Q: For TEDVKAVKVLGLTLGVQVIT, which amyloid nucleation score is on record?
A: The amyloid nucleation score was -0.657 ± 0.38.

Q: With FMIHMLTGSLLRVNDCNLGE as the substance, how does the amyloid nucleation score read?
A: The amyloid nucleation score was 0.987 ± 0.64.

Q: Which amyloid nucleation score does the source give for YYISLFTEDMSVRRVNQTCF here?
A: The amyloid nucleation score was -2.03 ± 0.96.

Q: With RYATSMYPL as the substance, how does the amyloid nucleation score read?
A: The amyloid nucleation score was 0.069 ± 0.56.

Q: Which amyloid nucleation score does the source give for SYIDHYITKSDAVWRVSIEQ here?
A: Its amyloid nucleation score is -0.176 ± 0.35.

Q: For SLVVEMVNYE, which amyloid nucleation score is on record?
A: The amyloid nucleation score was -0.039 ± 0.29.

Q: For PPVHSDFKWAFVWVQLVWRG, which amyloid nucleation score is on record?
A: The amyloid nucleation score was -0.016 ± 0.53.

Q: With EVYRVTAYVLFYGICQLTLE as the substance, how does the amyloid nucleation score read?
A: The amyloid nucleation score was -0.53 ± 0.32.

Q: For VSKSFVSQARLFYIQGDHCL, which amyloid nucleation score is on record?
A: Its amyloid nucleation score is 1.42 ± 0.73.

Q: For SNIREPDFRCIGLATF, which amyloid nucleation score is on record?
A: The amyloid nucleation score was 0.523 ± 0.7.

Q: Which amyloid nucleation score does the source give for GTSSRNLAFLVPWMVYMRVR here?
A: Its amyloid nucleation score is 0.635 ± 0.41.

Q: For LQKVFLAVDSYW, which amyloid nucleation score is on record?
A: The amyloid nucleation score was -0.347 ± 0.92.

Q: Which amyloid nucleation score does the source give for KWYGILNVVDDRRSIGRYDM here?
A: The amyloid nucleation score was -0.281 ± 0.58.

Q: Which amyloid nucleation score does the source give for RSWPSCNCVAKANMCFARSL here?
A: The amyloid nucleation score was -0.521 ± 0.39.

Q: With STNVGRILMCVQLSLWKLN as the substance, how does the amyloid nucleation score read?
A: Its amyloid nucleation score is 0.227 ± 0.29.

Q: For GFCYM, which amyloid nucleation score is on record?
A: The amyloid nucleation score was 0.997 ± 0.35.

Q: Which amyloid nucleation score does the source give for TCIDVQQYDCLVFFYFLHGF here?
A: The amyloid nucleation score was “inactive”.

Q: Which amyloid nucleation score does the source give for SYRRAVHGVVVQQKRDEFVL here?
A: The amyloid nucleation score was -0.026 ± 0.36.

Q: For LIDLSSIKSWHVFSKALCGR, which amyloid nucleation score is on record?
A: The amyloid nucleation score was 0.006 ± 0.27.

Q: For FIASIG, which amyloid nucleation score is on record?
A: The amyloid nucleation score was 0.274 ± 0.79.

Q: For TFLMCRNACYK, which amyloid nucleation score is on record?
A: Its amyloid nucleation score is 4.35 ± 0.15.

Q: Which amyloid nucleation score does the source give for DKAGNGQNGATGWRTMALSG here?
A: The amyloid nucleation score was 0.777 ± 1.2.

Q: For LHSSMNCRWIHTL, which amyloid nucleation score is on record?
A: The amyloid nucleation score was 0.618 ± 0.47.
